This note sets out measurements from PMC9684555, “Structure- and computational-aided engineering of an oxidase to produce isoeugenol from a lignin-derived compound” (Nature Communications, 2022).

A word on the stoichiometry N: it is a count of units in the complex or per binding partner.

This series concerns the molecule itself. Kind of series: crystal structure; sitting-drop vapor diffusion at 20 °C; crystals soaked 1 h with 5 mM 4-n-propylguaiacol; 2.9 Å; eight subunits in the asymmetric unit.

B1: S394V-EUGO5X mutant of eugenol oxidase (EUGO) from Rhodococcus jostii RHA1 (enzyme)
chain: MTRTLPPGVSDERFDAALQRFRDVVGDKWVLSTADELEAFRDPYPVGAAEANLPSAVVSPESTEQVQDIVRIANEYGIPLHPVSTGKNNGYGGAAPRLSGSVIVKTGERMNRILEVNEKYGYALLEPGVTYFDLYEYLQSHDSGLMLDCPDLGWGSVVGNTLDRGVGYTPYGDHFMWQTGLEVVLPQGEVMRTGMGALPGSDAWQLFPYGFGPFPDGMFTQSNLGIVTKMGIALMQRPPASQSFLITFDKEEDLEQIVDIMLPLRINMAPLQNVPVLRNIFMDAAAVSKRTEWFDGDGPMPAEAIERMKKDLDLGFWNFYGTLYGPPPLIEMYYGMIKEAFGKIPGARFFTHEERDDRGGHVLQDRHKINNGIPSLDELQLLDWVPNGGHIGFVPVSAPDGREAMKQFEMVRNRANEYNKDYMAQFIIGLREMYHVCLFIYDTADPEAREEILQMTKVLVREAAEAGYGEYRTHNALMDDVMATFNWGDGALLKFHEKIKDALDPNGIIAPGKSGIWPQRFRGQNL
modifications: covalently bound FAD cofactor
notes: eugenol oxidase (EUGO), Rhodococcus jostii RHA1, UniProt Q0SBK1; EUGO5X = S81H, A423M, H434Y, I445D, S518P, with S394V added; Tag-less protein after SUMO protease; crystals were soaked with 4-n-propylguaiacol; also called sixfold mutant S394V-EUGO5X; source: E. coli, from pBAD-His-Sumo-S394V-EUGO5X, purified (HisTrap, SUMO protease, reverse nickel, Superdex 200)
Regarding B1, the “stoichiometry N” value stood at 2.
